Measurements as given in paper PMC8938473 (2022).

Target: GST-BpfD-In (BpfD intracellular domains) (Shewanella putrefaciens CN32)
Assay: MST

Kd: 4.9 µM
B1: His6-CRP (natural protein)
chain: MALIGKPKPDPTLEWFLSHCHIHKYPAKSTLIHAGEDSDTLYYIVKGSVAVLIKDEEGKEMILSYLNQGDFIGELGLFEEQAERTAWVRAKQACEIAEISYKKFKQLIQVNPEILMKLSAQMAYRLQSTSQKVGNLAFLDVAGRIAQTLLHLAKQPDAMTHPDGMQIKITRQEIGQIVGCSRETVGRILKMLEEQNLIQAHGKTIVVYGTR
modifications: labeled with NHS NT-647 dye (in the MST assay only)
